{
  "source": "patent US20210122797A1",
  "molecular_target": "GLP-1 receptor (on pancreatic islets of C57BL/6J mice) (mouse (islets from C57BL/6J mice)) (UniProt O35659)",
  "data": [
    {"substance": "glucagon like peptide-1 (GLP-1) (ligand)", "values": [
      {"measurement": "Insulin Secretion ng/islet/hour (glucose-stimulated insulin secretion, 16.7 mM glucose + 10 nM peptide) (ng/islet/hour)", "value": 5.4}
    ]}
  ]
}
